From patent publication US20130267423A1, “PEPTIDE LIBRARIES FOR SCREENING AND OTHER APPLICATIONS” (priority 2010, published 2013)

Experiments:
[1] = molecular target: T1, C-reactive protein (CRP) (Homo sapiens, UniProt P02741); assay: Affinity measurements by surface plasmon resonance (Biacore T100, CRP immobilized on CM5 chip); type: binding; conditions: CRP immobilized approx. 5000 RU; peptide 5 micromolar down to 2 nM; 25° C.; FIG. 8A
T1 sequence (P02741 19-224): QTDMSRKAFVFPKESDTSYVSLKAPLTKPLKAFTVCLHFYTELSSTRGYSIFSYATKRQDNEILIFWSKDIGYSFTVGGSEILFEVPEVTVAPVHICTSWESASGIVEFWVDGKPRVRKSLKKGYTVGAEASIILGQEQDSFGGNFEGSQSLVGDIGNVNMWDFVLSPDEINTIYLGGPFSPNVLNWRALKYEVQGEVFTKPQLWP
Description: Affinity measurements. Affinity measurements were performed using a Biacore T100 system and research grade CM5 sensor chips (GE Heathcare). The instrument was primed with HBS-EP+ (GE Heathcare) buffer. Flow cell 1 (or 3) was used as a reference to subtract nonspecific binding, drift, and the bulk refractive index, while flow cell 2 (or 4) was immobilized with CRP following standard procedures. A 1:1 mixture of 0.4 M EDC and 0.1 M NHS was used to activate flow cell 2 (or 4), and 0.1 mg/mL CRP solution was injected. Blocking of the remaining activated groups was done with a 1 M solution of ethanolamine (pH 8.5). CRP was immobilized onto the sensor chip surface by approximately 5000 response units (RU). The instrument was then primed using running buffer (HBS-EP+). Each of the 6-mer ligand candidates identified were dissolved in HBS-EP+ buffer to produce 5 micromolar peptide stock solutions for each peptide, which were serially diluted by a factor of 2 to produce a concentration series down to 2 nM. For a given affinity measurement, these series of peptide solutions successively were injected into flow cell 2 (or 4) for 3 min of contact time, 5 min of dissociation time, and 3.5 min of stabilization time using a flow rate of 100 microliter/min at 25° C. Flow cell 2 (or 4) was regenerated by glycine 2.5 (GE Healthcare) after injection of each peptide solution.

[2] = molecular target: T1, C-reactive protein (CRP); assay: Dot blot selectivity/sensitivity assay with biotinylated 6-mer peptides; type: binding; conditions: biotinylated 6-mer at 1 micromolar in 5% nonfat milk/TBS-T; CRP 20 micrograms to 2 ng per spot; FIG. 8B
Description: Dot blot selectivity/sensitivity assays in serum. […] CRP solution was prepared as 10 mg/mL stocks in PBS buffer (pH 7.4). A dilution series of CRP solution was applied to a nitrocellulose membrane, typically ranging from 20 micrograms to 2 ng per spot. The membrane was blocked at room temperature for 2 h in 5% nonfat milk/TBS-T. The membrane was then washed with TBS-T. The biotinylated 6-mer solution was prepared at 1 micromolar in 5% nonfat milk/TBS-T and incubated over the membrane for 2 h at room temperature. After washing three times with TBS-T for 10 min, 1:3000 streptavidin-HRP (Abeam) prepared in 0.5% milk/TBS-T was added to the membrane and incubated for 2 h. After washing three times with TBS-T for 10 min, the membrane was treated with chemiluminescent reagents (Amersham ECL plus Western blotting detection reagents, GE Healthcare) and then immediately developed on film.

Substance	binding affinity to CRP / response in SPR [1]	binding affinity to CRP / response in dot blot [2]
LYFRRW (Synthetic Peptide Fragment) [6-mer CRP ligand candidate from focused library B screening]	highest response	highest response
WKFRYK (Synthetic Peptide Fragment) [6-mer CRP ligand candidate from focused library A screening]	highest response	highest response
